For orientation: stoichiometry N means a count of units in the complex or per binding partner.

The target of the test is GII.10 P domain (Vietnam026) (norovirus GII.10 (Vietnam026)). As to the kind of experiment: crystal structure.

“GII.10 P domain (Vietnam026) (domain or fragment)” displayed a stoichiometry N of 2.

The record behind these values is PMC5667739.
